T1: KPC1Δ967-1043 (FLAG-tagged) (Homo sapiens (Human), UniProt Q5XPI4 1-1314)
T1 construct: also called KPC1 species vii
T1 sequence: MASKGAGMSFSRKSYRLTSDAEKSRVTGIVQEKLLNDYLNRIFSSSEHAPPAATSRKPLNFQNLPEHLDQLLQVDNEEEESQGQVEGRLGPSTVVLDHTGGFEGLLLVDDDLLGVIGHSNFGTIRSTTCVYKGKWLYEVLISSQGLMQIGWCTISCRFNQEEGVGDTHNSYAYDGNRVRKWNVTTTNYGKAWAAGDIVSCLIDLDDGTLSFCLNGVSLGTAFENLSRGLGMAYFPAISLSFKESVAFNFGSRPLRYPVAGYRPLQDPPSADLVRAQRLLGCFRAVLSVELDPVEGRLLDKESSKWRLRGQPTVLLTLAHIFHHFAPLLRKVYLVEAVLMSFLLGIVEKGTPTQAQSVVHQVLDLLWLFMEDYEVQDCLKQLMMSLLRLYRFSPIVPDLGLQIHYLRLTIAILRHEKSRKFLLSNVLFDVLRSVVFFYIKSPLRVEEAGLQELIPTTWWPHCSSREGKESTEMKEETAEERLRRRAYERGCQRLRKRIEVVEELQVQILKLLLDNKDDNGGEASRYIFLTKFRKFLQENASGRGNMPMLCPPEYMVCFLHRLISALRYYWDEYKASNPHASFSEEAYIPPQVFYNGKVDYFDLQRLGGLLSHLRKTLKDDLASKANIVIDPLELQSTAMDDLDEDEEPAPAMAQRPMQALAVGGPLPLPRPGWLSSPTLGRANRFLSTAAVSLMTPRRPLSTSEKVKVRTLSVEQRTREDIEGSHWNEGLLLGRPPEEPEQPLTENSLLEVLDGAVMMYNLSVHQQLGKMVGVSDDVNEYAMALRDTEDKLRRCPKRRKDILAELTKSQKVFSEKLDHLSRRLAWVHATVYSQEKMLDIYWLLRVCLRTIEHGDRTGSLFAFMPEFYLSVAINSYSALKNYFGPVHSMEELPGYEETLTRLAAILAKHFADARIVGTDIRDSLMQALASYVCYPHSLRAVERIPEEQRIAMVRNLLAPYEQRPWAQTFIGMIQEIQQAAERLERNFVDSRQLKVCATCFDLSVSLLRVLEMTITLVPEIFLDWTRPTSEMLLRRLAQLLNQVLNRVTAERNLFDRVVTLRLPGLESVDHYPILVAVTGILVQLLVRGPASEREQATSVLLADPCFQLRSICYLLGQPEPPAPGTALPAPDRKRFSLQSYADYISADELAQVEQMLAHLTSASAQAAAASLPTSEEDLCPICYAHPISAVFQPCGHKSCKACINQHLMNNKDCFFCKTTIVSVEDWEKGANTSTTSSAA

B1: p105-HA (other, UniProt P19838 1-968, looked up)
chain: MAEDDPYLGRPEQMFHLDPSLTHTIFNPEVFQPQMALPTDGPYLQILEQPKQRGFRFRYVCEGPSHGGLPGASSEKNKKSYPQVKICNYVGPAKVIVQLVTNGKNIHLHAHSLVGKHCEDGICTVTAGPKDMVVGFANLGILHVTKKKVFETLEARMTEACIRGYNPGLLVHPDLAYLQAEGGGDRQLGDREKELIRQAALQQTKEMDLSVVRLMFTAFLPDSTGSFTRRLEPVVSDAIYDSKAPNASNLKIVRMDRTAGCVTGGEEIYLLCDKVQKDDIQIRFYEEEENGGVWEGFGDFSPTDVHRQFAIVFKTPKYKDINITKPASVFVQLRRKSDLETSEPKPFLYYPEIKDKEEVQRKRQKLMPNFSDSFGGGSGAGAGGGGMFGSGGGGGGTGSTGPGYSFPHYGFPTYGGITFHPGTTKSNAGMKHGTMDTESKKDPEGCDKSDDKNTVNLFGKVIETTEQDQEPSEATVGNGEVTLTYATGTKEESAGVQDNLFLEKAMQLAKRHANALFDYAVTGDVKMLLAVQRHLTAVQDENGDSVLHLAIIHLHSQLVRDLLEVTSGLISDDIINMRNDLYQTPLHLAVITKQEDVVEDLLRAGADLSLLDRLGNSVLHLAAKEGHDKVLSILLKHKKAALLLDHPNGDGLNAIHLAMMSNSLPCLLLLVAAGADVNAQEQKSGRTALHLAVEHDNISLAGCLLLEGDAHVDSTTYDGTTPLHIAAGRGSTRLAALLKAAGADPLVENFEPLYDLDDSWENAGEDEGVVPGTTPLDMATSWQVFDILNGKPYEPEFTSDDLLAQGDMKQLAEDVKLQLYKLLEIPDPDKNWATLAQKLGLGILNNAFRLSPAPSKTLMDNYEVSGGTVRELVEALRQMGYTEAIEVIQAASSPVKTTSQAHSLPLSPASTRQQIDELRDSDSVCDSGVETSFRKLSFTESLTSGASLLTLNKMPHDYGQEGPLEGKI
notes: Co-expressed with FLAG-tagged KPC1 species in HEK293T cells and detected with anti-NF-κB1 after anti-FLAG immunoprecipitation; also called NF-κB1 p105; NF-kB1 p105; not shown: HA tag

Legend:
p105-HA = target: B1; assay: co-immunoprecipitation (anti-FLAG) from HEK293T cells, western blot
Experimental: (§1) HEK293T cells were transiently transfected with the various KPC1 species along with p105-HA using the j etPEI reagent. 48 hours after transfection, the cells were harvested and lysed with RIPA buffer [150 mM NaCl, 0.5% sodium deoxycholate, 50 mM Tris-HCl (pH 8.0), 0.1% SDS, and 1% NP-40, supplemented with freshly added protease inhibitors mixture]. KPC1 species proteins were immunoprecipitated with immobilized anti-FLAG, with subsequent washing of the beads five times with RIPA buffer. The immunoprecipitated proteins were resolved by SDS-PAGE (10%, FIGS. 1A, 1B, 2A and 2B, with a gel gradient, of 4-20%; FIGS. 3A and 3B), and blotted onto nitrocellulose (FIGS. 1A, 1B, 2A and 2B) or PVDF (FIGS. 3A and 3B) membranes. p105 and KPC1 species were visualized using anti-NF-kB1 or anti-FLAG antibodies, respectively.
(§2) Identification of the region of KPC1 that is responsible for the interaction with p105. In order to identify the region of KPC1 that is responsible for the interaction with p105, several truncated segments of the DNA sequence of the KPC1 protein were cloned. The truncated segments were inserted into the pCAGGS expression vector to analyze their interaction with p105 by co-immunoprecipitation (Co-IP) from cells. HEK 293T cells were transfected with cDNAs coding for p105-HA, along with different fragments of KPC1 (FIG. 1A). Species of KPC1 were immunoprecipitated using an immobilized anti-Flag antibody. The precipitated proteins were resolved via SDS-PAGE and detected by Western blot using anti NF-κB1 and anti-FLAG antibodies.

[1] = target: T1, KPC1Δ967-1043 (FLAG-tagged); assay: as above
Experimental: as §1, §2

Row | Binder | binding result (p105-HA) | binding result [1]
1 | ILVRLW-KPC1 Δ 1-1253 (enzyme, also called KPC1 species xii) ILVRLWCPICYAHPISAVFQPCGHKSCKACINQHLMNNKDCFFCKTTIVSVEDWEKGANTSTTSSAA | no binding | –
2 | WILVRL-KPC1 Δ 1-1253 (enzyme, also called KPC1 species xvii) WILVRLCPICYAHPISAVFQPCGHKSCKACINQHLMNNKDCFFCKTTIVSVEDWEKGANTSTTSSAA | no binding | –
3 | B1 | – | no binding
4 | LVRLW-KPC1 Δ 1-1253 (enzyme, also called KPC1 species xiii) LVRLWCPICYAHPISAVFQPCGHKSCKACINQHLMNNKDCFFCKTTIVSVEDWEKGANTSTTSSAA | no binding | –
5 | WILVR-KPC1 Δ 1-1253 (enzyme, also called KPC1 species xviii) WILVRCPICYAHPISAVFQPCGHKSCKACINQHLMNNKDCFFCKTTIVSVEDWEKGANTSTTSSAA | no binding | –
6 | VRLW-KPC1 Δ 1-1253 (enzyme, also called KPC1 species xiv) VRLWCPICYAHPISAVFQPCGHKSCKACINQHLMNNKDCFFCKTTIVSVEDWEKGANTSTTSSAA | no binding | –
7 | WILV-KPC1 Δ 1-1253 (enzyme, also called KPC1 species xix) WILVCPICYAHPISAVFQPCGHKSCKACINQHLMNNKDCFFCKTTIVSVEDWEKGANTSTTSSAA | no binding | –
8 | KPC1Δ1-973 (FLAG-tagged) (enzyme, also called KPC1 species ix) WRGCGFGYRYTRLPHLLKTKLEDANLPSLQKPCPSTLLQQHMADLLQQGPDVAPSFLNSVLNQLNWAFSEFIGMIQEIQQAAERLERNFVDSRQLKVCATCFDLSVSLLRVLEMTITLVPEIFLDWTRPTSEMLLRRLAQLLNQVLNRVTAERNLFDRVVTLRLPGLESVDHYPILVAVTGILVQLLVRGPASEREQATSVLLADPCFQLRSICYLLGQPEPPAPGTALPAPDRKRFSLQSYADYISADELAQVEQMLAHLTSASAQAAAASLPTSEEDLCPICYAHPISAVFQPCGHKSCKACINQHLMNNKDCFFCKTTIVSVEDWEKGANTSTTSSAA | no binding | –
9 | RLW-KPC1 Δ 1-1253 (enzyme, also called KPC1 species xv) RLWCPICYAHPISAVFQPCGHKSCKACINQHLMNNKDCFFCKTTIVSVEDWEKGANTSTTSSAA | no binding | –
10 | WIL-KPC1 Δ 1-1253 (enzyme, also called KPC1 species xx) WILCPICYAHPISAVFQPCGHKSCKACINQHLMNNKDCFFCKTTIVSVEDWEKGANTSTTSSAA | no binding | –
11 | KPC1Δ1-1042 (FLAG-tagged) (enzyme, also called KPC1 species v) EFIGMIQEIQQAAERLERNFVDSRQLKVCATCFDLSVSLLRVLEMTITLVPEIFLDWTRPTSEMLLRRLAQLLNQVLNRVTAERNLFDRVVTLRLPGLESVDHYPILVAVTGILVQLLVRGPASEREQATSVLLADPCFQLRSICYLLGQPEPPAPGTALPAPDRKRFSLQSYADYISADELAQVEQMLAHLTSASAQAAAASLPTSEEDLCPICYAHPISAVFQPCGHKSCKACINQHLMNNKDCFFCKTTIVSVEDWEKGANTSTTSSAA | no binding | –
12 | KPC1 Δ 1-1253 (enzyme, also called KPC1 species xvi) CPICYAHPISAVFQPCGHKSCKACINQHLMNNKDCFFCKTTIVSVEDWEKGANTSTTSSAA | no binding | –
13 | KPC1Δ1-1017 (FLAG-tagged) (enzyme, Lacks amino acids 1-1017; also called KPC1 species x) LLQQGPDVAPSFLNSVLNQLNWAFSEFIGMIQEIQQAAERLERNFVDSRQLKVCATCFDLSVSLLRVLEMTITLVPEIFLDWTRPTSEMLLRRLAQLLNQVLNRVTAERNLFDRVVTLRLPGLESVDHYPILVAVTGILVQLLVRGPASEREQATSVLLADPCFQLRSICYLLGQPEPPAPGTALPAPDRKRFSLQSYADYISADELAQVEQMLAHLTSASAQAAAASLPTSEEDLCPICYAHPISAVFQPCGHKSCKACINQHLMNNKDCFFCKTTIVSVEDWEKGANTSTTSSAA | no binding | –

— patent US20210348152A1 (TECHNION RESEARCH AND DEVELOPMENT FOUNDATION, published 2021)
